Results: patent publication US20260125455A1 (CLEVELAND CLINIC FOUNDATION, published 2026)
Blank lines part the entries; values can stand above or below the binder they belong to.

Columns and labels:
[1] = biological target: T1, human complement protein C6 (human, UniProt P13671 22-934); experiment: BLI (Octet RED384), antibody on Protein G biosensors, C6 0.27-5 nM, 1:1 fit, experiment 2
T1 construct: also called human C6; C6 antigen
Method: The binding of the purified chimeric molecules, MoC601 HuG4K and MoC601 HuG1KFab, was also confirmed by ELISA, where the anti-human IgG (Fab-specific) secondary reagent was used. The control mouse antibody bound as previously (EC₅₀ 0.11 nM). The EC₅₀ for purified MoC601 HuG4K (0.27 nM) was similar to that obtained for the MoC601 HuG4K supernatant sample above. […] The EC₅₀ value for the Fab molecule (0.48 nM) was higher than for the antibody, which would be expected since the Fab is unable to bind bivalently to the antigen on the well. A C6-binding assay was also set up on the Octet RED384 instrument. […] However, MoC601 MoG1K could be stably loaded onto anti-mouse Fc (AMC) biosensors. Concentrations of the mouse and chimeric antibodies were adjusted to give similar levels of loading on to the AMC and
Protein G biosensors respectively in subsequent experiments. There was no non-specific binding of C6 protein to unloaded sensors or sensors loaded with an isotype control antibody. […] The mouse and chimeric datasets were processed by subtracting the no antigen controls and the data were fitted to a 1:1 binding model. Binding curves giving Req/Rₘₐₓ ratios>90% or showing poor fitting were excluded from analysis. A second full kinetic experiment was performed with an adjusted concentration range (six points, 0.27-5 nM) and an extended dissociation step of 20 minutes.

[2] = biological target: T1, human complement protein C6; experiment: C6-binding ELISA, A650 nm; sample 'mouse serum' (28 days at 37 C)
Method: (§1) For the serum stability assessment, samples of the purified candidate antibodies are normally incubated in mouse, human and cynomolgus serum at 37 C for 28 days and then tested in an antigen-binding ELISA. Since the anti-C6 antibodies are expected to bind to both human and cynomolgus C6 but not mouse C6, we anticipated that incubating in human or cynomolgus sera would reduce ELISA binding due to occupation of the antibody binding sites by C6 protein from the sera. Therefore, the chimeric and humanized antibodies were tested with human and mouse sera and with human sera from which the C6 protein has been depleted. […]
(§2) Binding ELISAs used Nunc Maxisorp 384-well plates, wells coated with C6, C5b,6 complex or C5 (Complement Technology Inc, TX) and goat anti-human IgG (Fab specific) peroxidase secondary antibodies (Sigma-Aldrich, A0293) for detection. For the thermal stability assay, IgG supernatants were diluted to their EC₈₀ concentration, incubated at different temperatures for 10 min and C6 binding measured by ELISA with the binding signal plotted against temperature. Kinetics of C6 binding were measured by capturing antibodies from supernatant samples using Protein G biosensors and performing a 20 min association step with 2.5 nM C6 and a 20 min dissociation step using the Octet RED96. […]

[3] = biological target: T1, human complement protein C6; experiment: C6-binding ELISA, A650 nm; sample 'PBS, non-incubated' (kept at 4 C)
Method: (§3) For the serum stability assessment, samples of the purified candidate antibodies are normally incubated in mouse, human and cynomolgus serum at 37 C for 28 days and then tested in an antigen-binding ELISA. Since the anti-C6 antibodies are expected to bind to both human and cynomolgus C6 but not mouse C6, we anticipated that incubating in human or cynomolgus sera would reduce ELISA binding due to occupation of the antibody binding sites by C6 protein from the sera. Therefore, the chimeric and humanized antibodies were tested with human and mouse sera and with human sera from which the C6 protein has been depleted. The C6-binding ELISA was then used to compare the binding abilities of the C601 antibodies that had been incubated in the 3 different sera to antibody samples that were incubated in PBS at 37 C or kept at 4 C (non-incubated).
(§4) The Uncle instrument (Unchained Labs) was used to monitor unfolding via intrinsic fluorescence and aggregation by static light scattering across a temperature gradient to obtain melting temperatures (Tₘ). […] Isoelectric points were determined by capillary isoelectric focusing using a PA800+ (Beckman Coulter). […]

[4] = biological target: T1, human complement protein C6; experiment: C6-binding ELISA, A650 nm; sample 'C6-depleted human serum' (28 days at 37 C)
Method: as §3, §4

[5] = biological target: T1, human complement protein C6; experiment: C6-binding ELISA, A650 nm; sample 'human serun' (human serum, 28 days at 37 C)
Method: as §1, §2

[6] = biological target: T1, human complement protein C6; experiment: C6-binding ELISA, A650 nm; sample 'PBS, non-incubated' (kept at 4 C); remark: listed apart in the source
Method: The C6-binding ELISA was then used to compare the binding abilities of the C601 antibodies that had been incubated in the 3 different sera to antibody samples that were incubated in PBS at 37 C or kept at 4 C (non-incubated).
Binding ELISAs used Nunc Maxisorp 384-well plates, wells coated with C6, C5b,6 complex or C5 (Complement Technology Inc, TX) and goat anti-human IgG (Fab specific) peroxidase secondary antibodies (Sigma-Aldrich, A0293) for detection. For the thermal stability assay, IgG supernatants were diluted to their EC₈₀ concentration, incubated at different temperatures for 10 min and C6 binding measured by ELISA with the binding signal plotted against temperature. Kinetics of C6 binding were measured by capturing antibodies from supernatant samples using Protein G biosensors and performing a 20 min association step with 2.5 nM C6 and a 20 min dissociation step using the Octet RED96. […] Binding of C6 measured using a three-fold concentration series of C6 from 0.03 nM-25 nM and data were fitted using a 1:1 model in two independent experiments.
The Uncle instrument (Unchained Labs) was used to monitor unfolding via intrinsic fluorescence and aggregation by static light scattering across a temperature gradient to obtain melting temperatures (Tₘ). […] Isoelectric points were determined by capillary isoelectric focusing using a PA800+ (Beckman Coulter).

T1 sequence (P13671 22-934 limits assumed): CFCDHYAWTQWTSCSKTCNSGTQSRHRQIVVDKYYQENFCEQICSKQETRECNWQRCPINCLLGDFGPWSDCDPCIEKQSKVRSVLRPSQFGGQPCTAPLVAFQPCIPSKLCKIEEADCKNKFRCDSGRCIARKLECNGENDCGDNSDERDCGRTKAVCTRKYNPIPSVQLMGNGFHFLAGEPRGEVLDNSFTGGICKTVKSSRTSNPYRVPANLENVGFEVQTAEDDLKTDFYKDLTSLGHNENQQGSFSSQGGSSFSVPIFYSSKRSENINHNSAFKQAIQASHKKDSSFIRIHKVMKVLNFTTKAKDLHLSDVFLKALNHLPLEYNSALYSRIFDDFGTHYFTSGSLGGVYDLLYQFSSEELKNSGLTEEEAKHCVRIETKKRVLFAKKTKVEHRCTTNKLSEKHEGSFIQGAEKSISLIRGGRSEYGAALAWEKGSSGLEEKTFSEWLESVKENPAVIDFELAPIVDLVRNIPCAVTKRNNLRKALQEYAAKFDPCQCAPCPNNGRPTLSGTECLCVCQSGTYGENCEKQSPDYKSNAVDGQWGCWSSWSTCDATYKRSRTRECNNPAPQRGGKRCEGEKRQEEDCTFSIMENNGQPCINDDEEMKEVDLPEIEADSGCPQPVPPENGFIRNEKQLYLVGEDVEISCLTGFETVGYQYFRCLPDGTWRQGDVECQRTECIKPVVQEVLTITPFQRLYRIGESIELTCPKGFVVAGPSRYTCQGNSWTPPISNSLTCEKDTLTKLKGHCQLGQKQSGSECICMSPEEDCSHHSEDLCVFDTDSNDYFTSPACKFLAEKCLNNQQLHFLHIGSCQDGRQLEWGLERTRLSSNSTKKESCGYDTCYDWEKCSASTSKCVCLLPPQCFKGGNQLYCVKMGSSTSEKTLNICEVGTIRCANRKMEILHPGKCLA

- Kd [1]: 350 pM
- kon [1]: 690000 M⁻¹ s⁻¹
- EC50 [2]: 190 pM
- EC50 [3]: 180 pM
B1: MoC601 HuG4K (chimeric C601 antibody) (antibody, human IgG4 S228P, kappa, V domains shown)
VH: QVQLQQSGAELVKPGASVKISCKASGYAFSDYWMNWVKQRPGKGLEWIGQIYPGDDDTNYNGKFKGKATLTADKSSSTAYMQLSSLTSEDSAVYFCAREGYYGYTYVEYFDVWGTGTTVTVSS
VL: QIVLTQSPAIMSVSPGEKVTLTCSASSSVSYMHWYQQKSGTSPKRWIYDTSKLASGVPARFSGSGSGTSYSLTISSMEAEDAATYYCQQWTSNPLTFGAGTKLELRR
notes: also called chimeric antibody; chimeric 1C9

- EC50 [4]: 170 pM
- EC50 [5]: 190 pM
- EC50 [6]: 170 pM
B2: C601HFKC4 HuG4K (antibody, human IgG4 S228P, kappa)
heavy: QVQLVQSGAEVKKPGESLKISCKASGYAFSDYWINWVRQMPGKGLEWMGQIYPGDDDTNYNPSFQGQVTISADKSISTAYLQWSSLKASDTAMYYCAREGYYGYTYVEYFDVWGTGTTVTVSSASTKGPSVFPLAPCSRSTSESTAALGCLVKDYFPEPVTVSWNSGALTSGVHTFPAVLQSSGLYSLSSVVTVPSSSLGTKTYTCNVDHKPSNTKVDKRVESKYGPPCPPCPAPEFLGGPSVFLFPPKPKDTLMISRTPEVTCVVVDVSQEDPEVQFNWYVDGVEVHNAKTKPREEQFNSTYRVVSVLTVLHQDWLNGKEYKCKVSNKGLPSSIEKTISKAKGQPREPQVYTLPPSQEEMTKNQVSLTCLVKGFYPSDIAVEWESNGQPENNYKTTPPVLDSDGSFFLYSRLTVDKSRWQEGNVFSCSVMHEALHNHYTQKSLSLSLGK
light: QIVLTQSPATLSLSPGERATLSCRASSSVSYLHWYQQKPGQSPRLWIYDTSKRATGIPARFSGSGSGTDYTLTISSLEPEDFAVYYCQQWTSNPLTFGQGTKLEIKRTVAAPSVFIFPPSDEQLKSGTASVVCLLNNFYPREAKVQWKVDNALQSGNSQESVTEQDSKDSTYSLSSTLTLSKADYEKHKVYACEVTHQGLSSPVTKSFNRGEC
notes: also called 3713; clone 3713
